# Experiment: soluble on expression in E. coli; label from the status in PepcDB or PDB records
row,Sequence,soluble on expression in E. coli
1,MNRRDFIKAASGGALLLGAAPSVSHAAAENRPPIPGSLGMLYDSTLCVGCQACVTKCQDINFPARNPEGEQTWSNNDKLSPYTNNIIQVWRSGTGVNKDQEENGYAYIKKQCMHCVDPNCVSVCPVSALKKDPKTGIVHYDKDVCTGCRYCMVACPYNVPKYDYNNPFGALHKCELCNQKGVERLDKGGLPGCVEVCPAGAVIFGTREELMAEAKKRLALKPGSEYHYPRQTLKTDDTYLHTVPKYYPHLYGEKEGGGTQVLVLTGVPYEDLDLPKLDDLSTGARSEHVQHTLYKGMILPLAALAGLTVLVRRNSKNDHHDGGDDHES,not soluble
2,MNRRLELYYTRQLLVISKYCQDQTKEIVLPTVGQNIGDSWITDIFVKLREKLVKYTTQVSRPLATKVVQDSQKEVDAQIAEHTKSIIGVDLTPFYRASDIQDVVDTNIAANVALIKSIPNQYVDKLEALVMNAFQTGQTNEDLAKAIAQLGQSTDSRARLIAADQMGKVNGQINKARQLSMGVETYVWQTAKDERVRKDHQHKQGKTFRWDDPPTGGHPGEPIRCRCTALPNYEDILVD,not soluble
3,MNSEQADILDLLSGHTDDTTIERLAFECLLTNMTDDRVVSLMNILGWQGDFNCFAIGGVPSASLASTSLAIRKAVRDLGGEHVVIGTYGTFLLALACQMGAVTPEVTCTAVMPAFSEDEPLYLSPVRSGVAGASHALRETMFSLQAAPALSTPSRPLRADELLPERALLGDDYAREELYRNVYQVLRGENPDDPTYLTVSTFLKYGSSLENTAKELNVHPNTVRYRLKRAAETTGWDATDPRDAYVLTTALAIGRMRDR,soluble
4,MNSILICGGAGYIGSHAVKKLVDEGLSVVVVDNLQTGHEDAITEGAKFYNGDLRDKAFLRDVFTQENIEAVMHFAADSLVGVSMEKPLQYYNNNVYGALCLLEVMDEFKVDKFIFSSTAATYGEVDVDLITEETMTNPTNTYGETKLAIEKMLHWYSQASNLRYKIFRYFNVAGATPNGIIGEDHRPETHLIPLVLQVALGQREKIMMFGDDYNTPDGTCIRDYIHVEDLVAAHFLGLKDLQNGGESDFYNLGNGNGFSVKEIVDAVREVTNHEIPAEVAPRRAGDPARLVASSQKAKEKLGWDPRYVNVKTIIEHAWNWHQKQPNGYEK,soluble
5,MNSIRSSPAIGENRTVYIGSYDGKLYAFNPDGTLKWSYTTGNQITGSATIGADGTICIGSYDRRLYTINPDGTLKWSYTTGNQIFSSAAIGEDGTIYVGSRDNKLYALNPDGTLKWSYTTGNQIFSSAAIGEDLEHHHHHH,not soluble
6,MNSPLDVKDLIDLGRDPVVVFNPPSIGTPDRIERYHAALEWLIGRERPFVLVTRADGDEASESHEDRKSRAVWFKNNLMALAQVCRGFVYVEQDEARRAAWQVRAEGMAKTFPVPMIIAGDMEAAITQALDLVKASRDPAPGGSPHA,not soluble
7,MNSRQQSILQMVVDKGQMSVAELAKITGVSEVTIRQDLNTLEKQSYLRRAHGFAVSLESDDVETRMMTNYTLKRRLAEFAASLVSPGESVFIENGSSNALLARTLAEQKDVTIITVSSYIAHLLKETPCEVILLGGIYQKKSESMVGPLTRQFIHQVHFSKAFIGIDGWQADTGFTGRDMMRSDVVNAVLEKGSEAIVLTDSSKFGCVHPYPLGPLSRFHRVITDSKISASDQMQLEHAGLLVNVIGSSVLEHHHHHH,soluble
8,MNSSSTLQKLLDRRGQAANGNSATQAVQWQEGMNLTLHVNGDSLTMLAEIINLRADPQDDILLRKLLAHAFPGLRLRRGALTINPDENTLVYSYEHDFLALDKTRFENLLANFAETTQELRNTAQRLR,not soluble
9,MNSYVKWIFVVLLICSLTAFVEKDKPTGGLSEGDVAPDFKIESASNGQPAFKLGNLKGKYVLLSFWASYDAQSRMQNVSLSNVLRSSRNVEMVSVSFDEYQSIFKETVRKDQIVTPTCFVETEGEDSRLFKKYRLNRGFTNYLLDGNGVIIAKNISAADLSAYVSEIG,not soluble
10,MNTIPLHTILKLMAHPERMAILIQLLDSERNIAELAKSLSLPATAVSNHLNRLRVEGLVDFTRYHRIIEYRLVSEEAAAILHTVRDLENKRVA,not soluble
11,MNTLLLDKGEQQVHLNLKYANRHGLIAGATGTGKTVSLMSLAEGFSRQGVPVFITDIKGDISGLGVAGTPNDKLLQRAAEIGVEGYQTEANPVVFWDLAGIQGHPLRTTVSEMGPTLLGRILELNDTQSSILDIVFQLADDQGLLLLDLDDLRAMLNLVADERKDISAKYGLISAQSLAAIQRSVLGLERDGGKDFFGEPALQLEDLMRTNLQGRGIINLLAANKLILTPNLYSSFLLWLLSELFENLPEVGDLDKPKLVFFIDEAHLLFEGCPASLLKRIEQIMRLIRSKGVGVYFCSQFPDDIPNEILGQLGNRIQHALRAYTPRDQKAVKTAAETFVSNPKLVVSEVISQLAVGEALVSTLAEKGVPTMVERTLIAPPRCRMGPANPEELTAIRALSPIGGKYDTLINRESAYERLNQRHTDETNGVNTAQPAANEAEQGWLSELIFGNKRRQGLAETLSKQAARTVGNQLGKQILRGLLGGILGKSTRR,not soluble
12,MNTLSSLLLALQQADSFFPGGAVAWSWGLETLVADGRLGAGERVTARRRQRAVRLDRSAAVRGFVEGQLRHRWHSFDRVFLLAAWNAADDVSALTNLDAQIEALTLAKELRQGSRRVGQALLGVHVALGTPGAAAYQQQVRAGNTPGHLPVLQGLLWNRLGMHREHCQLAAAHGLCTGLVSAAVRLGVMGHIDAQRVLTDIQPLITELLALEPPEPEDACGFTPMAEIAVMRHETQDLRLFANLEHHHHHH,soluble
13,MNTNMVASELGVSAKTVQRWVKQLNLPAERNELGHYSFTAEDVKVLKSVQKQISEGTAIQDIHLPKSAKKRTGFLVQKTSSDTERRIEQLEQKLDTLLQQRQDESELMARMSELERQLKQKADEGVSYQLLQHRREIDDILADLQSLTSQMKEFTAHSIPETAAASEKTKTRKKPLLSLFKFQTLEHHHHHH,not soluble
14,MNTNVTTNKSVQAAKNTGRVKPQKLADIILAQLEGMIIEGSLQPGEKLLPERELALQFEVSRPSLREAIQKLEAKGLVTRKQGGGTFVCNNLLSGFSDPLFELMSNNNESQFDLLEFRHGIEGMASYYAAMRGTPADFEQIQAKHNEIGNSQLEDDFRGEAEAVVEFHLAICAASHNAVILQLARSMSSLLADNIAQNLTVLAKRPDIFSKITDYRKRLLDAILSGQPQKAWGASHRHLAFIEEVLLKSTQENSRMERSMRRM,not soluble
15,MNTYVAEIGEIVRSQRRDEEYIEDITERLSRVSKELLGQRTWIRWFPYLKSIASTLYYTSTVVLGNQTLGEEYVHLFESNGLERTVPSIPSRISFVLLHSAFPLISNYLIQKAESTLTHPSTESFLGIPIRKNQKARQSFLDVFFWLRTKLFPQLQRAHIALFYITGAYYSIARRFTGIRFLSASAHSDIPALKVYRFLGYITLIQLAVSIGISLYSFLEQEKFNNKLKKEKKENNGGSDRNLDENSLFHPTFQCSICLENKNPSALFCGHLFCWTCIQEHAVAATSSASTSSARCPQCRLEFQPRDPNNLRLLSTSTHPTIYFTGIQPTGIPHLGNFFGSIEPWTELQNSVDKNILMMLSVVDQHAISLGPLPANELRQNTHQMTASLIACGVDPNRTLLFRQSDVPQIAQISWILGSLQTTSKLARLPQYKEKKERFKKGDIPVGLLTYPLLQAADVLTFKATTVPVGEDQSQHLNLLGGLAYAFNKTYETEIFPIPKQLTRESHARIRSLREPEKKMSKSSGGPRSRIEITDSRSTIIEKCQKAQSDNAGKVTYDKENRLAVSNLLDLYSAVTKTQTSEIDFSNWTTLDLKMNLAEAVDKRLAPIRQKFEELQNTGEVDKVLTENGEKAREIAEKNLEEIRRTIGFL,not soluble
16,MNVDLHCHSTASDGALSPTALVARAHEYGVRVLSLTDHDTLEGLEEARTAAHSLGMQLVNGVELSCTWGGATIHVLGYGFDTQAPALTEAIARLHEGRWLRAEEISRKLAIKGMPGALEGARAIQQALGDSGNAPARPHFADFMVRAGFVKDRAEAFRKWLGAGKLGDVKQHWPTLEDTVATLRASGAWVSLAHPSHYDFTRSKRRKLVGDFVQAGGHAIEVVNGMQPADQVGTLAILAREFGLLVSAGSDFHGPGNWGEIGTYRPVPEDLPPLWCRF,soluble
17,MNVLALDTSQRIRIGLRKGEDLFEISYTGEKKHAEILPVVVKKLLDELDLKVKDLDVVGVGIGPGGLTGLRVGIATVVGLVSPYDIPVAPLNSFEMTAKSCPADGVVLVARRARKGYHYCAVYLKDKGLNPLKEPSVVSDEELEEITKEFSPKIVLKDDLLISPAVLVEESERLFREKKTIHYYEIEPLYLQKSIAELNWEKKKRG,not soluble
18,MNVLDEPDRLHGAHVPIRRGSVRQLQWWEPTPAERVRVLAWTCDCQARFYELCQSGGMVYIRRTVQKDPEPEISETHRWPVQEGWRVWFDLLTGEVR,not soluble
19,MNVTLLVADAVWSNIESTGSVTEEQLSILQLLFGKNLEKATRIIDKRGVKKISGLPSGRSIFQVVGESQKREEYLCFPGDYCGCYSFFYDVVSRGEHQCCKHQLAARLASSLGTYNEIEVSDDHLALMLSKI,not soluble
20,MNVVSNTQLLEQRIADFFTLSDEHKKARVLLDTLACSCPARIFGGMVRDLGLYGVDGFSSDLDIVIGRSREELFQTLAELPVKQLRFNKFGGIRFRYHDFEFDIWNLNETWAFQEKLIFCEDESSLLNEVA,not soluble
21,MNWGEGEWNSFFHFFTKEFINMSESFKELFEQSIAGAQFYPGAIITAKVIDIDDDFVTLNAGLKSEGIVAVEEFYDKNGELEVKVGDTVEVALDSVEDGHGETLLSREKAKRQEAWRKLSKCHENNETVTGLISGKVKGGFTVEIGSIRAFLPGSLVDVRPVRDPSYLEGKELEFKVIKMDLKRNNIVVSRRAVVEEESSADRQALLESLHDGQELHGIVKNLTDYGAFIDLGGIDGLLHITDISWKRVKHPSEVLSVGQDVKVKVLSFDSERNRVSLGMKQLGNDPWVDLVERYPIGKRLQGKVTNITDYGCFVEIEEGVEGLVHMSEMDWTNKNVHPSKVVSLGDVVDVMVLEIDEERRRISLGMKQCVGNPWQQFASTHNKGEKVKGKIRSITDFGIFIGLDGDIDGLVHLSDISWTVPGEEAVKQFKKGQELEAVILAIDPERERISLGLKQLEGDSFASFAETYTKGSIVKGTVTAVEPKTVTVALAEDVSGTIRVSELSDERVDDATTIVKVGDEVEAKITNIDRKNRTISLSVKAKDAQDEADAIKKYSRTEAASTTLGDLLKEKMASKEGELEHHHHHH,soluble
22,MNYHSTNVNEIWDACLRILQDIVDERAYRTWFLPIIPVSIEGDTLTLQVPSQFFCEFLEGNFVEQLRTVLGRVIGPNASLQYNALVDNSSPKYPGTVTLAGCADGGQAAEQFDVNLLHRHM,not soluble
23,MNYILKQMLGGRQVIATHTCIGMDTDAFQNGRNLVTDTLEIYTGDLRKTLDTLSSIFHPSSFPLKSLRILDNADFKHPIIQGSLLLVVPNTENMHLISNKRVHARYFYYKDDVDFIINKWLDDGKEAGTHFSIGMFLTEDHVKEKYEEFLSTFEERVSWRTNYPPCFAINIDNFSEIVIGYEEFQQISTPEWRLNFKVQKREEFV,not soluble
24,MNYPVNPDLMPALMAVFQHVRTRIQSELDCQRLDLTPPDVHVLKLIDEQRGLNLQDLGRQMCRDKALITRKIRELEGRNLVRRERNPSDQRSFQLFLTDEGLAIHQHAEAIMSRVHDELFAPLTPVEQATLVHLLDQCLAAQPLEDI,soluble

# — the DeepSol protein solubility set
